In US6379664:

Key:
[1] = target: gamma crystallin-GSH mixed disulfide
[2] = target: G3PD from H2O2 (0.5 mM) pretreated rabbit lens epithelial cells
[3] = target: BSA-GSH mixed disulfide, P02769
[4] = target: alpha crystalline-cystine mixed disulfide
[5] = target: alpha crystallin-GSH mixed disulfide
[6] = target: protein-cysteine mixed disulfides (PSSC); assay: cell-based or functional assay

Sequence of BSA-GSH mixed disulfide, P02769 (P02769 25-607): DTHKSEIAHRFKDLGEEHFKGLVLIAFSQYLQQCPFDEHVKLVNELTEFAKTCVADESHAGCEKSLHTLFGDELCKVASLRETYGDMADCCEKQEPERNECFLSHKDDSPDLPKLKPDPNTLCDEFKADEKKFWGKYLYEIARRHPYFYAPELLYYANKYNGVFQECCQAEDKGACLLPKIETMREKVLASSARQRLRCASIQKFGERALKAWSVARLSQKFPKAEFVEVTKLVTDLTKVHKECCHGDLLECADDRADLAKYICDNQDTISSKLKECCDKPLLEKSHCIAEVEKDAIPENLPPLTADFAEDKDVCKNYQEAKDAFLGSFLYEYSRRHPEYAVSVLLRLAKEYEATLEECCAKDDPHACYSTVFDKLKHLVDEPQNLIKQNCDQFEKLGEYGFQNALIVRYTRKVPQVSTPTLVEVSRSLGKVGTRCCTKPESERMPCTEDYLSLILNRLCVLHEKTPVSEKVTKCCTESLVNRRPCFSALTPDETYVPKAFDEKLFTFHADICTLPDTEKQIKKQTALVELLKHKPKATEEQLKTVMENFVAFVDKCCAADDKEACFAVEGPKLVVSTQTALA

B1: recombinant human lens thioltransferase (protein)
chain: AQEFVNCKIQPGKVVVFIKPTCPFCVKTQELLSQLPFKEGLLEFVDITATSDTNEIQDYLQQLTGARTVPRVFIGKECIGGCTDLESMHKRGELLTRLQQIGALK
For B1, the “dethiolation of 3H-PSSG (nmol dethiolated per µg thioltransferase protein; TCA-soluble radioactivity)” value [1] was 1.15 nmol/µg thioltransferase, the “substrate preference in dethiolation” value [1] was “Gamma crystallin-thiol mixed disulfide appears to be the favorable substrate for lens thioltransferase” and the “regeneration of G3PD activity (percent of activity regenerated by 30 mM DTT)” value [2] was “regeneration of G3PD from H2O2 (0.5 mM) pretreated rabbit cells by recombinant human lens thioltransferase”. For the same binder, the “dethiolation of 3H-PSSG (nmol dethiolated per µg thioltransferase protein; TCA-soluble radioactivity)” value [3] was 0.3 nmol/µg thioltransferase, the “dethiolation of 14C-PSSC” value [4] was “alpha crystalline-cystine mixed disulfide could not be dethiolated by lens thioltransferase” and the “dethiolation of 3H-PSSG (nmol dethiolated per µg thioltransferase protein; TCA-soluble radioactivity)” value [5] was 0.6 nmol/µg thioltransferase.

B2: recombinant human lens thioltransferase, P12309 2-106 (enzyme)
chain: B1 chain
B2 was tested, and the dethiolation of PSSC relative to PSSG [6] was 50 to 60%.
